Sequences and labels used below:
B1: Azoarcus group I ribozyme (parent)
chain: GUGCCUUGCGCCGGGAAACCACGCAAGGGAUGGUGUCAAAUUCGGCGAAACCUAAGCGCCCGCCCGGGCGUAUGGCAACGCCGAGCCAAGCUUCGGCGCCUGCGCCGAUGAAGGUGUAGAGACUAGACGGCACCCACCUAAGGCAAACGCUAUGGUGAAGGCAUAGUCCAGGGAGUGGCGAAAGUCACACAAACCGG

This series covers variants of B1. The series is described as follows: reverse-splicing fitness (ratio to wild type); higher = more active; in vitro selection; Mg2+ level not given. Put shortly: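 An in vitro group I ribozyme library with randomized positions was T7-transcribed and gel-purified. In triplicate, 10 pmol RNA in EPPS pH 7.5 was reacted with 50 pmoles of a 30-nt RNA substrate for 1 h at 37 °C across several added MgCl2 levels (1–48 mM), then stopped with EDTA. Products were reverse transcribed from a substrate-complementary primer, PCR-amplified and sequenced (HiSeq 4000). Fitness is a variant's read proportion after selection over that before, normalised to wild type.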
Consider GUGCCUUGCGCCGGGAAACCACGCAAGGGAUGGUGUCAAAUUCGGCGAAACCUAAGCGCCCGCCCGGGCGUAUGGCAACGCAGAGCCAAGCUUCGGCGCCUGCGCCGAUGCAGGUGUAGCGACUAGACGGCACCCACCUAAGGCCAACGAUAUGGUGAAGGCAUAGUCAAGGGAGUGGCGAAAGUCACACAAACCGG [C82A A111C A120C A145C C150A C169A], for which the reverse-splicing fitness is 0.00755.
The figure for GUGCCUUGCGCCGGGAAACCACGCAAGGGAUGGUGUCAAAUUCGGCGAAACCUAAGCGCCCGCCCGGGCGUAUGGCAACGCAGAGCCAAGCUUCGGCGCCUGCGCCGAUGAAGGUGUAGAGACUAGACGGCACCCACCUAAGGCAAACGCUAUGGUGAAGGCAUAGUCCAGGGAGUGGCGAAAGUCACACAAACCGG [C82A] is 0.658.
The figure for GUGCCUUGCGCCGGGAAACCACGCAAGGGAUGGUGUCAAAUUCGGCGAAACCUAAGCGCCCGCCCGGGCGUAUGGCAACGCAGAGCCAAGCUUCGGCGCCUGCGCCGAUGCAGGUGUAGCGACUAGACGGCACCCACCUAAGGCCAACGAUAUGGUGAAGGCAUAGUCGAGGGAGGGGCGAAAGUCACACAAACCGG [C82A A111C A120C A145C C150A C169G U176G] is 0.00757; for GUGCCUUGCGCCGGGAAACCACGCAAGGGAUGGUGUCAAAUUCGGCGAAACCUAAGCGCCCGCCCGGGCGUAUGGCAACGCAGAGCCAAGCUUCGGCGCCUGCGCCGAUGCAGGUGUAGCGACUAGACGGCACCCACCUAAGGCCAACGAUAUGGUGAAGGCAUAGUCGAGGGAGAGGCGAAAGUCACACAAACCGG [C82A A111C A120C A145C C150A C169G U176A] it is 0.0296; for GUGCCUUGCGCCGGGAAACCACGCAAGGGAUGGUGUCAAAUUCGGCGAAACCUAAGCGCCCGCCCGGGCGUAUGGCAACGCAGAGCCAAGCUUCGGCGCCUGCGCCGAUGCAGGUGUAGCGACUAGACGGCACCCACCUAAGGCCAACGAUAUGGUGAAGGCAUAGUCGAGGGAGCGGCGAAAGUCACACAAACCGG [C82A A111C A120C A145C C150A C169G U176C] it is 0.024.
The same measure for GUGCCUUGCGCCGGGAAACCACGCAAGGGAUGGUGUCAAAUUCGGCGAAACCUAAGCGCCCGCCCGGGCGUAUGGCAACGCAGAGCCAAGCUUCGGCGCCUGCGCCGAUGCAGGUGUAGCGACUAGACGGCACCCACCUAAGGCAAACGCUAUGGUGAAGGCAUAGUCCAGGGAGUGGCGAAAGUCACACAAACCGG [C82A A111C A120C]: 0.0246.
As to GUGCCUUGCGCCGGGAAACCACGCAAGGGAUGGUGUCAAAUUCGGCGAAACCUAAGCGCCCGCCCGGGCGUAUGGCAACGCAGAGCCAAGCUUCGGCGCCUGCGCCGAUGCAGGUGUAGCGACUAGACGGCACCCACCUAAGGCCAACGCUAUGGUGAAGGCAUAGUCCAGGGAGUGGCGAAAGUCACACAAACCGG [C82A A111C A120C A145C], the reverse-splicing fitness was found to be 0.0248.
On to GUGCCUUGCGCCGGGAAACCACGCAAGGGAUGGUGUCAAAUUCGGCGAAACCUAAGCGCCCGCCCGGGCGUAUGGCAACGCAGAGCCAAGCUUCGGCGCCUGCGCCGAUGCAGGUGUAGCGACUAGACGGCACCCACCUAAGGCCAACGGUAUGGUGAAGGCAUAGUCCAGGGAGUGGCGAAAGUCACACAAACCGG [C82A A111C A120C A145C C150G], for which the reverse-splicing fitness was found to be 0.00873.
As to GUGCCUUGCGCCGGGAAACCACGCAAGGGAUGGUGUCAAAUUCGGCGAAACCUAAGCGCCCGCCCGGGCGUAUGGCAACGCAGAGCCAAGCUUCGGCGCCUGCGCCGAUGCAGGUGUAGCGACUAGACGGCACCCACCUAAGGCCAACGAUAUGGUGAAGGCAUAGUCCAGGGAGUGGCGAAAGUCACACAAACCGG [C82A A111C A120C A145C C150A], the reverse-splicing fitness came to 0.0107.
In the case of GUGCCUUGCGCCGGGAAACCACGCAAGGGAUGGUGUCAAAUUCGGCGAAACCUAAGCGCCCGCCCGGGCGUAUGGCAACGCAGAGCCAAGCUUCGGCGCCUGCGCCGAUGCAGGUGUAGCGACUAGACGGCACCCACCUAAGGCCAACGAUAUGGUGAAGGCAUAGUCUAGGGAGAGGCGAAAGUCACACAAACCGG [C82A A111C A120C A145C C150A C169U U176A], the reverse-splicing fitness stood at 0.0165.
As for GUGCCUUGCGCCGGGAAACCACGCAAGGGAUGGUGUCAAAUUCGGCGAAACCUAAGCGCCCGCCCGGGCGUAUGGCAACGCAGAGCCAAGCUUCGGCGCCUGCGCCGAUGCAGGUGUAGCGACUAGACGGCACCCACCUAAGGCCAACGAUAUGGUGAAGGCAUAGUCUAGGGAGGGGCGAAAGUCACACAAACCGG [C82A A111C A120C A145C C150A C169U U176G], the reverse-splicing fitness was found to be 0.00786.
With GUGCCUUGCGCCGGGAAACCACGCAAGGGAUGGUGUCAAAUUCGGCGAAACCUAAGCGCCCGCCCGGGCGUAUGGCAACGCAGAGCCAAGCUUCGGCGCCUGCGCCGAUGCAGGUGUAGCGACUAGACGGCACCCACCUAAGGCCAACGAUAUGGUGAAGGCAUAGUCUAGGGAGCGGCGAAAGUCACACAAACCGG [C82A A111C A120C A145C C150A C169U U176C], the reverse-splicing fitness stood at 0.0127.
The same measure for GUGCCUUGCGCCGGGAAACCACGCAAGGGAUGGUGUCAAAUUCGGCGAAACCUAAGCGCCCGCCCGGGCGUAUGGCAACGCAGAGCCAAGCUUCGGCGCCUGCGCCGAUGCAGGUGUAGCGACUAGACGGCACCCACCUAAGGCCAACGAUAUGGUGAAGGCAUAGUCAAGGGAGCGGCGAAAGUCACACAAACCGG [C82A A111C A120C A145C C150A C169A U176C]: 0.00935; for GUGCCUUGCGCCGGGAAACCACGCAAGGGAUGGUGUCAAAUUCGGCGAAACCUAAGCGCCCGCCCGGGCGUAUGGCAACGCAGAGCCAAGCUUCGGCGCCUGCGCCGAUGCAGGUGUAGCGACUAGACGGCACCCACCUAAGGCCAACGAUAUGGUGAAGGCAUAGUCAAGGGAGAGGCGAAAGUCACACAAACCGG [C82A A111C A120C A145C C150A C169A U176A]: 0.0167.
As to GUGCCUUGCGCCGGGAAACCACGCAAGGGAUGGUGUCAAAUUCGGCGAAACCUAAGCGCCCGCCCGGGCGUAUGGCAACGCAGAGCCAAGCUUCGGCGCCUGCGCCGAUGCAGGUGUAGCGACUAGACGGCACCCACCUAAGGCCAACGAUAUGGUGAAGGCAUAGUCAAGGGAGGGGCGAAAGUCACACAAACCGG [C82A A111C A120C A145C C150A C169A U176G], the reverse-splicing fitness worked out at 0.00733.
